Structures can show the parent of a compound that is named as a salt. Marks after values point to notes of the source that are not given here. Each block holds one molecule with its values, some of them ahead of it.
Columns and labels:
CT26 tumors = experiment: CT26 syngeneic mouse model of colorectal cancer, tumor volume and weight; format: in vivo; settings: day 28, BALB/c mice bearing CT26 tumors, Ab11 10 mg/kg, irinotecan 100 mg/kg IP, hydrochloride
Procedure: The CT26 cell line was used as a syngeneic mouse model of colorectal cancer. Mice were injected with tumor cells and dosed with the Ab11 antibody alone or in combination with iriniotecan.
BALB/c mice (BALB/cAnNCrl) were obtained from Charles River (Hollister, Calif., USA) and maintained in the animal facility at Rinat. […] The mice were housed in microisolators (filter top cages) under pathogen-free conditions with a 12-h light/12-h dark schedule and fed autoclaved standard chow and water throughout the experiment.
Cells were harvested by brief incubation with Accutase (A6964-100ML) (Sigma™ Aldrich, Inc., St. Louis, Mo., USA) and washed in new medium for counting. […]
Mice were dose intraperitoneally (IP) every second to third day. Tumor volume and body weight were measured at least twice a week. […]
The tumors were measured every 2-4 days with a digital caliper (mm). Baseline tumor volumes were calculated using the following formula: V=d2^2×(d½) where d1 was the longest diameter of the tumor and d2 was the perpendicular to d1. At the end of the study, while the study was still blinded, outliers were determined and excluded from all four groups. Tumors that were 3× standard error of the mean < mean and 3× standard error of the mean > mean on all days after day 14 (days 18, 22, 25, and 28) were determined outliers. Tumor weight at the end of the study was also measured.

cyno GHR = experiment: STAT5 phosphorylation in vitro assay, cyno GHR-transfected HEK293 cells; format: cell-based, cynomolgus monkey; settings: for fluorescent signal ave (phospho-STAT5): Table 8, cyno GHR-transfected cells
Procedure: This Example illustrates the effect of GHR antibodies in an in vitro STAT5 phosphorylation assay. In this Example, the ability of GHR antibodies to block GHR downstream signaling was tested in vitro using human GHR overexpressing cells and cyno GHR overexpressing cells.
GHR antagonist antibody Ab13 was tested for its ability to block STAT5 in an in vitro assay. HEK293 cells were transiently transfected with either DNA encoding full-length human GHR (SEQ ID NO: 140) or DNA encoding full-length cyno GHR (SEQ ID NO: 141). Cells were cultured in freestyle media for approximately 60 hours before testing. Cells were washed with DPBS (Dulbecco's Phosphate-Buffered Saline) and resuspended in Freestyle media, then counted using a hemocytometer. 1×10^6 cells were seeded per well in 6-well plates in 2 mls of Freestyle media. Cells were incubated for 2 hours at 37° C., then treated with 5, 50, or 500 nM Ab13 antibody in media. Cells were incubated at 37° C. with gentle mixing for 5 min with antibodies. 4.5 nM GH (Genotropin) was then added to all but control wells. Cells were incubated with GH at 37° C. with gentle mixing for 10 minutes.
Following incubation with GH, 2 ml of ice cold DPBS with 1× protease inhibitor cocktail (Roche) and 1 mM sodium orthovanadate (BioLabs) were added to each well and the plates were placed on ice. Cells were transferred to 5 ml tubes and spun down to create a cell pellet and the wash buffer was aspirated, leaving the cell pellet.
Reagents from Millipore™ MILLIPLEX® MAP Cell Signaling Buffer and Detection Kit (cat. #48-602) were used to lyse and treat the cell pellets. Millipore lysis buffer with 1× protease inhibitor cocktail and 1 mM sodium orthovanadate was added to each pellet at a volume of 200 ul/pellet. Cells were vortexed and incubated for 15 minutes at room temp with occasional vortexing. Millipore Assay buffer 2 with 1× protease inhibitor cocktail and 1 mM sodium orthovanadate was then added to the lysates at 300 ul/well.
Millipore™ MILLIPLEX® MAP Phospho STAT5N8 (Tyr694/699) MAPmate™ beads (Cat. #46-641) were resuspended in Assay Buffer 2 (from Millipore™ kit cat. #48-602) and loaded on a 96-well filter plate (provided in kit) at 25 ul/well, 25 ul/well of sample lysate was added to the wells and the beads and samples were incubated overnight at 4′C with shaking in the dark.
The liquid was then aspirated using a vacuum manifold and the remaining beads were washed using Millipore™ kit wash buffer. 25 ul Millipore™ kit detection antibody was added and incubated for 1 hour at room temperature with shaking in the dark. The detection antibody was vacuumed through and 25 ul kit streptavidin—Phycoerythrin was added and incubated in the dark for 15 min with shaking. 25 ul kit amplification buffer was then added and incubated for 15 min with shaking in the dark. The liquid was aspirated using a vacuum manifold, and the beads were resuspended in 150 ul kit assay buffer 2 and mixed on a shaker for 5 minutes before reading the plate.
The plate was read using a Luminex™ 200 instrument and fluorescent signal emitted from the samples was measured, The results of the STAT5 assay are shown in Tables 5 and 6. “Ave” indicates the average fluorescent signal, and “SEM” indicates the standard error of the mean.
Antibodies SS3 and SS1 (hIgG2Δa) were tested using a STAT5 phosphorylation assay. For the STAT5 assay, full-length human GHR overexpressing HEK293 cells or full-length cyno GHR-overexpressing HEK293 cells were cultured, counted by automated cell counter, and seeded in warm freestyle media in 12-well plates (5×10^5 cells/well in 1 ml media). Cells were allowed to settle for 3 hours at 37° C. then treated with 2.5, 5, 50, or 500 nM of SS1 or SS3 in media. […] Cells were incubated with GH at 37° C. with gentle mixing for 10 minutes.
Reagents from Millipore™ MILLIPLEX® MAP Cell Signaling Buffer and Detection Kit (cat, #48-602) were used to lyse and treat the cell pellets. […]

human GHR = biological target: T1, human GHR (Homo sapiens, UniProt P10912, I544L); experiment: STAT5 phosphorylation in vitro assay, human GHR-transfected HEK293 cells; format: cell-based; settings: for fluorescent signal ave (phospho-STAT5): Table 7, human GHR-transfected cells
T1 construct: expressed in transfected cells; host or cells: HEK293
T1 sequence (P10912 19-638 I544L): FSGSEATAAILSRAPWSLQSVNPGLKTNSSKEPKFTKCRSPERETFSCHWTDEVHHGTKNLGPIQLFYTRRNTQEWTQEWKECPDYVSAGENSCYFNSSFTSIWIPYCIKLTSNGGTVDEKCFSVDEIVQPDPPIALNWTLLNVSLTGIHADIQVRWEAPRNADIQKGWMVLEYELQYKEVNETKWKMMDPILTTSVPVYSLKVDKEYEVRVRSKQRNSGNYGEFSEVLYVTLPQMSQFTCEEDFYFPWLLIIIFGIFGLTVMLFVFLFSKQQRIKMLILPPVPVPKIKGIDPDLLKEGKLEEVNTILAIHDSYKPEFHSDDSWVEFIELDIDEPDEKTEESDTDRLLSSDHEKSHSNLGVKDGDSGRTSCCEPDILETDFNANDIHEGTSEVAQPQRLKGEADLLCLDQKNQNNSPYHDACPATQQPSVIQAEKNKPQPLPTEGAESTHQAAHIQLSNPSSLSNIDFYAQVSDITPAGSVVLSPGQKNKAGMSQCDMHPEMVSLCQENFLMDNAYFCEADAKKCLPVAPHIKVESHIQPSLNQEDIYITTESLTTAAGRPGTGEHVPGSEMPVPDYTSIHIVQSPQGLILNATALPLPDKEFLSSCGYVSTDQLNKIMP
Procedure: This Example illustrates the effect of GHR antibodies in an in vitro STAT5 phosphorylation assay. In this Example, the ability of GHR antibodies to block GHR downstream signaling was tested in vitro using human GHR overexpressing cells and cyno GHR overexpressing cells. […]
Antibodies SS3 and SS1 (hIgG2Δa) were tested using a STAT5 phosphorylation assay. For the STAT5 assay, full-length human GHR overexpressing HEK293 cells or full-length cyno GHR-overexpressing HEK293 cells were cultured, counted by automated cell counter, and seeded in warm freestyle media in 12-well plates (5×10^5 cells/well in 1 ml media). Cells were allowed to settle for 3 hours at 37° C. then treated with 2.5, 5, 50, or 500 nM of SS1 or SS3 in media.
Millipore™ lysis buffer with 1× protease inhibitor cocktail and sodium orthovanadate was added to each pellet at a volume of 100 ul/pellet Cells were vortexed and incubated for 15 minutes at room temp with occasional vortexing, Millipore™ Assay buffer 2 with 1× protease inhibitor cocktail and 1 mM sodium orthovanadate was then added to the lysates at 200 ul/well.
25 ul/well of sample lysate was added to the wells and the beads and samples were incubated overnight at 4′C with shaking in the dark. […]
The plate was read using a Luminex 200 instrument and florescent signal emitted from the samples was measured.

Sequence of cyno GHR (as listed by the source): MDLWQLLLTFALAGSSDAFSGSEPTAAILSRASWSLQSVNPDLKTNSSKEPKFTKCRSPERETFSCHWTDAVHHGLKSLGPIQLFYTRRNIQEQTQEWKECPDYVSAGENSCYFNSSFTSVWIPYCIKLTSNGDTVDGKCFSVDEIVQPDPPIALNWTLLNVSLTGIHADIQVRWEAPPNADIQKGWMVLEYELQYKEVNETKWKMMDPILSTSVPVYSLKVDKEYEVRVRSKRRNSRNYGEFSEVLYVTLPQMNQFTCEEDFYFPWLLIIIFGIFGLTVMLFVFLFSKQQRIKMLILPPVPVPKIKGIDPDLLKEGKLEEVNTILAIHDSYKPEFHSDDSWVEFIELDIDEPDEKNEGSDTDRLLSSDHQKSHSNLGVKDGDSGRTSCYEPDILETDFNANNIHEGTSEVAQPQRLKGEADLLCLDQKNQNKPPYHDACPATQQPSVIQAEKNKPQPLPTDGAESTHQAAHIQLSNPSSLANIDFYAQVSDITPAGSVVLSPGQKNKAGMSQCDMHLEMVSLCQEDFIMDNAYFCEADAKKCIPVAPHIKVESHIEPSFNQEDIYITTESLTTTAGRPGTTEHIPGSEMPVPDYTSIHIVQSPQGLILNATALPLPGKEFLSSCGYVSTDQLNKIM

Molecule: CCc1c2c(nc3ccc(OC(=O)N4CCC(N5CCCCC5)CC4)cc13)-c1cc3c(c(=O)n1C2)COC(=O)[C@]3(O)CC [Irinotecan, Irinotecan hydrochloride]
Tumor weight (in grams), mean (CT26 tumors): 1.2** g
Tumor weight (in grams), mean (CT26 tumors; listed as irinotecan): 1.2 g

Molecule: GH: growth hormone, added at 4.5 nM to stimulate STAT5 signaling in GHR-transfected cells [reference compound]
fluorescent signal Ave (phospho-STAT5) (cyno GHR; Table 6, cyno GHR-transfected cells, 4.5 nM GH alone): 562
fluorescent signal ave (phospho-STAT5) (cyno GHR; 4.5 nM GH alone): 847

fluorescent signal ave (phospho-STAT5) (human GHR; 2.5 nM antibody + 4.5 nM GH): 100
fluorescent signal ave (phospho-STAT5) (human GHR; 5 nM antibody + 4.5 nM GH): 48
fluorescent signal ave (phospho-STAT5) (human GHR; 50 nM antibody + 4.5 nM GH): 0
fluorescent signal ave (phospho-STAT5) (human GHR; 500 nM antibody + 4.5 nM GH): 0
B1: SS3: humanized GHR antagonist antibody; VL SEQ ID NO: 9, VH SEQ ID NO: 10 (antibody, V domains shown)
VH: EVQLVESGGGLVKPGGSLRLSCAASGFTFSDAWMDWVRQAPGKGLEWVAEIRSKANNHATYYAESVKGRFTISRDDSKNTLYLQMNSLKTEDTAVYYCTLFRDYWGQGTLVTVSS
VL: EIVLTQSPGTLSLSPGERATLSCTATSSVSSSYLNWYQQKPGQAPRLLIYSTSNLASGIPDRFSGSGSGTDFTLTISRLEPEDFAVYYCHQYHRFTPTFGGGTKVEIK
modifications: Humanized and/or affinity matured antibody sequence
effect on GH-stimulated STAT5 signaling (human GHR; cells expressing human GHR, 4.5 nM GH): blocked STAT5 signaling in a dose-dependent manner
fluorescent signal ave (phospho-STAT5) (cyno GHR; 2.5 nM antibody + 4.5 nM GH): 621
fluorescent signal ave (phospho-STAT5) (cyno GHR; 5 nM antibody + 4.5 nM GH): 518
fluorescent signal ave (phospho-STAT5) (cyno GHR; 50 nM antibody + 4.5 nM GH): 50
fluorescent signal ave (phospho-STAT5) (cyno GHR; 500 nM antibody + 4.5 nM GH): 8
effect on GH-stimulated STAT5 signaling (cyno GHR; cells expressing cyno GHR, 4.5 nM GH): blocked STAT5 signaling in a dose-dependent manner

Source: US9249224B2 (RINAT NEUROSCIENCE CORP., priority 2011, dated 2016)
